This note sets out measurements from US20070274981A1 (Eli Lilly, published 2007).

The target in assay [1] is T1, Recombinant FGFR-1(IIIb) (UniProt P11362-19 22-376).
T1 construct: Bought (R&D Systems); also called FGFR-1b; FGFR-(IIIb); not shown: Fc-tag of the recombinant receptor (detected with anti-human Fc)
T1 sequence (looked up): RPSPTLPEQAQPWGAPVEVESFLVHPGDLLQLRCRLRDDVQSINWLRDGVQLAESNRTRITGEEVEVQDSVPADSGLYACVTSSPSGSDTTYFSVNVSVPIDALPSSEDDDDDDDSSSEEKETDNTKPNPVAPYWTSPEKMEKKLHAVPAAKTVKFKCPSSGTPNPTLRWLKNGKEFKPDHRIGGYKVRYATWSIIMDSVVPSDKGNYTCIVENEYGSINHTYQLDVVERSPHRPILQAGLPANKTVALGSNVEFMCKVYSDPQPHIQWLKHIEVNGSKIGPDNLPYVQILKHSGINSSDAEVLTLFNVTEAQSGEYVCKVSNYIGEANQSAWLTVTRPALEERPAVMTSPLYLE
Briefly: BiaCore 3000 biosensor, binding kinetics.

Assay [2] addresses T2, Recombinant FGFR-4 (UniProt P22455 22-369).
T2 construct: Bought (R&D Systems); also called FGFR-4(IIIc)
T2 sequence (looked up): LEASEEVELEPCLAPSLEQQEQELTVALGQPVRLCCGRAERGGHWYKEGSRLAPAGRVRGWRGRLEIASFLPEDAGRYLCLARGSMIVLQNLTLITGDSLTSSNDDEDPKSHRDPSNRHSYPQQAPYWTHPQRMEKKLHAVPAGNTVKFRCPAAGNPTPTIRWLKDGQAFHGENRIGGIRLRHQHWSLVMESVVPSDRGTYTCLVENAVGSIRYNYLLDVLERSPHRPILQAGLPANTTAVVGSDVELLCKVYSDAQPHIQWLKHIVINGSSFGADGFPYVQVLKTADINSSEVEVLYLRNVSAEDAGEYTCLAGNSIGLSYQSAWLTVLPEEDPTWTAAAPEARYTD
Put plainly: BiaCore 3000 biosensor, binding kinetics. (Surface plasmon resonance follows binding to a sensor surface in real time, without labels.)

Assay [3] deals with T1, Recombinant FGFR-1(IIIb). Put plainly: kinetic analysis (BiaCore).
Assay [4] concerns the target T1, Recombinant FGFR-1(IIIb). Put plainly: ELISA blocking assay: FGFR-1(IIIb) binding to immobilised FGF-2. As for the experimental part:
(§1) Recombinant FGFs (R&D systems, Minneapolis, Minn.) were coated on Immulon® 2B microtiter plates (ThermoLab Systems, Franklin, Mass.) at concentrations of 0.5-2 μg/ml for 2 hrs. The plates were then washed with 0.2% Tween20/PBS, and blocked with 5% milk/PBS for 2 hrs before use. Phage or antibody was serially diluted with 5 μg/ml heparin (Sigma, St Louis, Mo.), 5% milk, PBS. Recombinant FGFR-1 (R&D Systems) was then added to a final concentration of 1 μg/ml. […] Plates were then washed 3 times with 0.2% Tween20/PBS. The bound receptors were detected using an anti-human Fc monoclonal antibody coupled with HRP (Pierce Biotechnology Inc., Rockford, Ill.) solution prepared according to supplier's instructions. Data were presented as % inhibition of ligand-receptor binding of the controls.
(§2) The blocking activities to fully active, native FGFR-1 receptor were determined in the cell-based blocking assay.
A general note: An ELISA detects its analyte on a solid surface through an enzyme-linked reagent.

The target of assay [5] is T1, Recombinant FGFR-1(IIIb). Briefly: ELISA blocking assay: FGFR-1(IIIb) binding to immobilised FGF-1. As for the experimental part:
as §1, §2

Assay [6] concerns the target T2, Recombinant FGFR-4. Put plainly: kinetic analysis (BiaCore).
In assay [7] the target is T1, Recombinant FGFR-1(IIIb). Briefly: BiaCore analyses.

B1: FR1-H7 (antibody, V domains shown)
VH: EVQLVQSGAEVKKPGASVKVSCKVSGYTFTDYYMHWVQQAPGKGLEWMGLVDPEDGETIYAEKFQGRVTITADTSTDTAYMELSSLRSEDTAVYYCARDDYMDVWGKGTLVTVSS
VL: ETTLTQSPDTLSLSPGEGATLSCRASQSVSGSALAWYQQKPGQAPRLLIYDASSRATGVPDRFSGSGSGADFSLTISRLEPEDFAVYSCQQYGSSPLTFGPGTKVDVKR
notes: also called FR1-H7 antibody
In general, Kd refers to the constant that tells how readily two partners part at equilibrium. For orientation: IC50 means the concentration needed to halve the response being measured. Regarding B1, the dissociation constant Kd is 0.06 nM in assay [1], 200 nM in assay [2] and about 0.05 nM in assay [3]. Further, the IC50 was 2 to 5 nM in assay [4] and about 5 nM in assay [5].

B2: FR1-A1 (antibody, V domains shown)
VH: QVQLVQSGAEVKKPGSSVKVSCKASGQTFTGYYMHWVRQAPGQGLEWMGRIIPILGIANYAQKFQGRVTITADKSTSTAYMELSSLRSEDTAVYYCARGGDLGGMDVWGQG
VL: EIVLTQSPLSLPVTPGEPASISCRSSQSLRHSNGYNYLDWYLQKPGQSPQLLIYLASNRASGVPDRFSGSGSGTDFTLKISRVEAEDVGVYYCMQALQIPPTFGPGTKVDIKR
notes: also called FR1-A1 antibody
For B2, the Kd in assay [6] was found to be 90 nM.

B3: FR1-4H (antibody, V domains shown)
VH: QVQLVEFGPGLVKPSETLSLTCTVSGGSISSYYWSWIRQPPGKGLEWIGYIYYSGSTNYNPSLKSRVAISVDTSKNQFSLKLSSVTAADTAVYYCAREYYYDSSGYYFYAFDIWGQGTTVTVSS
VL: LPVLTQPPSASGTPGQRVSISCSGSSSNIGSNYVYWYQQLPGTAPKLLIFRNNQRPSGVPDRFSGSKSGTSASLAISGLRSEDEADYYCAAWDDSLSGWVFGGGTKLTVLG
notes: Isolated by the same procedure as FR1-H7 and FR1-A1
As to B3, the Kd in assay [7] was determined as 1.1 nM.
